Results published in patent US20030175288A1 (GREEN PEPTIDE, published 2003).

Target: T1, HLA-A0201 molecule on T2 cells (human)
T1 construct: MHC class I molecule without peptide on T2 cells; detected with anti-HLA-A2 mAb BB7.2; also called HLA-A2 molecule
Assay: T2 cells with 10 µM peptide, HLA-A2 stained with mAb BB7.2, flow cytometry (relative MFI)
Experimental: Binding activity of the peptide to the HLA-A0201 molecule was tested using a T2 cell mutant strain (Cancer Res., 54:1071-1076, 1994.) The T2 cell expresses the HLA-A2 molecule on a cell surface without binding to a peptide, because of deficiency of TAP. Specifically, the synthesized peptide (10 μM) and the T2 cells were incubated at 26° C. for 3 h and, subsequently, incubated in 5% CO₂ and 95% air at 37° C. for 3 h. Thus, T2 cells, on whose surface the peptide was presented by HLA-A2, were obtained.

Row | Binder | MFI
1 | NVLHFFNAPL (synthetic peptide; also called gene 2 (HNRPL) 501-510) [P9] | 832
2 | CLYGNVEKV (synthetic peptide; also called gene 2 (HNRPL) 404-412) [P7] | 783
3 | LIADFLSGL (synthetic peptide; also called gene 1 (UBE2V) 85-93) [P3] | 910
4 | RLQEWCSVI (synthetic peptide; positions counted on the gene 1 product; also called UBE2V 43-51; gene 1 43-51) [P1] | 571
5 | LLLLARWEDT (synthetic peptide; also called gene 1 (UBE2V) 64-73) [P2] | 607
6 | LLQDWHVIL (synthetic peptide) [P4] | 1010
7 | ALVEFEDVL (synthetic peptide) [P6] | 819
8 | ILPRKHHRI (synthetic peptide; also called gene 1 (UBE2V) 208-216) [P5] | 637

More lines, now with the values ahead:

Row | MFI | Binder
9 | 660 | GLLFLHTRT (synthetic peptide; also called gene 5 (ppMAPkkk) 294-302) [P17]
10 | 789 | IIYDRKFLM (synthetic peptide; also called gene 4 (EIF4EBP1) 52-60) [P15]
11 | 887 | QILKGLLFL (synthetic peptide; also called gene 5 (ppMAPkkk) 290-298) [P16]
12 | 656 | TLLRKERGV (synthetic peptide; also called gene 3 (WHSC2) 267-275) [P13]
13 | 591 | RIIYDRKFL (synthetic peptide; also called EIF4EBP1 51-59; gene 4 51-59) [P14]
14 | 657 | DLLSHAFFA (synthetic peptide) [P18]
15 | 1090 | ILGELREKV (synthetic peptide; also called gene 3 (WHSC2) 141-149) [P11]
16 | 780 | MLPLECQYL (synthetic peptide; also called gene 3 (WHSC2) 157-165) [P12]
17 | 775 | QQLCVYWTV (synthetic peptide) [P19]
